± gives the standard error. For part of these data: Variants at the floor of the assay were thinned out.
B1: glmS ribozyme (parent)
chain: AUAAAAGCGCCAGAACUACAGAAAUGUAGUUGACGAGGAGGAGGUUUAUCGAAUUUUCGGCGGAUGCCUCCAAA

Columns and labels:
Details in all cases: with glucosamine-6-phosphate
glucosamine-6-phosphate [1] = variants of: B1; experiment: kcat; higher = faster cleavage; RNA array
How it was run: (§1)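 In situ transcription by E. coli RNA polymerase produced barcoded ribozyme variants on sequenced MiSeq chips, and a hybridised Cy3 probe tracked them at 37 °C. Glucosamine-6-phosphate was flowed in at 40 μM to 10 mM in HEPES/KCl/Mg(OAc)2 buffer. kcat and KM were taken from weighted Michaelis–Menten fits of kobs values from exponential decay fits.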

glucosamine-6-phosphate [2] = variants of: B1; experiment: self-cleavage kobs at 40 uM GlcN6P; higher = faster cleavage; RNA array
How it was run: as §1

glucosamine-6-phosphate [3] = variants of: B1; experiment: self-cleavage kobs at 10000 uM GlcN6P; higher = faster cleavage; RNA array
How it was run: as §1

glucosamine-6-phosphate [4] = variants of: B1; experiment: self-cleavage kobs at 160 uM GlcN6P; higher = faster cleavage; RNA array
How it was run: as §1

glucosamine-6-phosphate [5] = variants of: B1; experiment: self-cleavage kobs at 640 uM GlcN6P; higher = faster cleavage; RNA array
How it was run: as §1

glucosamine-6-phosphate [6] = variants of: B1; experiment: self-cleavage kobs at 2500 uM GlcN6P; higher = faster cleavage; RNA array
How it was run: as §1

glucosamine-6-phosphate [7] = variants of: B1; experiment: KM; higher = weaker cofactor use; RNA array
How it was run: as §1

Row | Variant | kcat (glucosamine-6-phosphate [1]) | self-cleavage kobs at 40 uM GlcN6P (glucosamine-6-phosphate [2]) | self-cleavage kobs at 10000 uM GlcN6P (glucosamine-6-phosphate [3]) | self-cleavage kobs at 160 uM GlcN6P (glucosamine-6-phosphate [4]) | self-cleavage kobs at 640 uM GlcN6P (glucosamine-6-phosphate [5]) | self-cleavage kobs at 2500 uM GlcN6P (glucosamine-6-phosphate [6]) | KM (glucosamine-6-phosphate [7])
1 | C68A C70G | < 1e-05 s⁻¹ | < 1e-05 s⁻¹ | < 1e-05 s⁻¹ |  |  |  | 
2 | C70G C71A | 5.66e-05 ± 1.4e-05 s⁻¹ |  | 3.7e-05 ± 9.8e-06 s⁻¹ | 8.13e-05 ± 1.8e-05 s⁻¹ | 7.38e-05 ± 1.2e-05 s⁻¹ | 6.86e-05 ± 1.8e-05 s⁻¹ | 
3 | G63A C68G | 1.26e-05 ± 3.4e-06 s⁻¹ |  |  |  |  |  | 
4 | G63A C68A | 2.09e-05 ± 4.7e-06 s⁻¹ |  |  |  |  |  | 
5 | G63U C68G | 1.09e-05 ± 2.8e-06 s⁻¹ | < 1e-05 s⁻¹ |  |  |  | < 1e-05 s⁻¹ | 
6 | C68U C70U | 2.24e-05 ± 7.8e-06 s⁻¹ |  | 1.88e-05 ± 3.8e-06 s⁻¹ |  |  | 3.68e-05 ± 7.6e-06 s⁻¹ | 
7 | U65C C70U | 0.000844 ± 0.0001 s⁻¹ |  | 0.000647 ± 0.0001 s⁻¹ | 3.71e-05 ± 1e-05 s⁻¹ | 0.000169 ± 2.7e-05 s⁻¹ | 0.000379 ± 7.6e-05 s⁻¹ | 2930 ± 550 µM
8 | A64G C67U | 0.00193 ± 0.0003 s⁻¹ | 2.93e-05 ± 7.3e-06 s⁻¹ | 0.00154 ± 0.00015 s⁻¹ | 0.000155 ± 2.3e-05 s⁻¹ | 0.000628 ± 8.6e-05 s⁻¹ | 0.00125 ± 0.00017 s⁻¹ | 1860 ± 470 µM
9 | G66U C67G | 0.000827 ± 0.00015 s⁻¹ | 3e-05 ± 7.9e-06 s⁻¹ | 0.000687 ± 6.4e-05 s⁻¹ | 4.82e-05 ± 7.9e-06 s⁻¹ | 0.000262 ± 5.1e-05 s⁻¹ | 0.000418 ± 4.7e-05 s⁻¹ | 2210 ± 730 µM
10 | U65A G66A | 0.00068 ± 8.6e-05 s⁻¹ | 3.95e-05 ± 1.7e-05 s⁻¹ | 0.000577 ± 7.2e-05 s⁻¹ | 6.05e-05 ± 1.3e-05 s⁻¹ | 0.000177 ± 2.8e-05 s⁻¹ | 0.000442 ± 6.9e-05 s⁻¹ | 1640 ± 390 µM
11 | G66U U69A | 0.000163 ± 3e-05 s⁻¹ |  | 0.000191 ± 3.2e-05 s⁻¹ | 7.46e-05 ± 3e-05 s⁻¹ | 8.9e-05 ± 1.5e-05 s⁻¹ | 0.000118 ± 2.1e-05 s⁻¹ | 
12 | A64G U65G G66U C70G | 2.23e-05 ± 6.3e-06 s⁻¹ |  |  |  |  |  | 
13 | G66C C71G | 4.2e-05 ± 2.4e-06 s⁻¹ |  | 3.81e-05 ± 1.5e-05 s⁻¹ |  | 4e-05 ± 1.4e-05 s⁻¹ | 4.07e-05 ± 1.1e-05 s⁻¹ | 108 ± 50 µM
14 | C68A C71G | 2.77e-05 ± 1e-05 s⁻¹ |  |  | 3.29e-05 ± 1e-05 s⁻¹ |  | 3.63e-05 ± 9.6e-06 s⁻¹ | 
15 | C68A C71U | 1.62e-05 ± 4.6e-06 s⁻¹ |  |  |  |  | 2.17e-05 ± 9.8e-06 s⁻¹ | 
16 | A15U U46G G51U |  |  |  |  |  |  | 56.5 ± 15 µM
17 | G66A C71G | 0.00165 ± 0.00056 s⁻¹ | 5.97e-05 ± 7.2e-06 s⁻¹ | 0.00264 ± 0.00044 s⁻¹ | 0.000141 ± 1.8e-05 s⁻¹ | 0.000486 ± 6.2e-05 s⁻¹ | 0.000935 ± 9.9e-05 s⁻¹ | 1470 ± 720 µM
18 | G66C C67U | 2.82e-05 ± 1.9e-06 s⁻¹ |  | 2.37e-05 ± 7.3e-06 s⁻¹ |  |  |  | 1800 ± 520 µM

Row | Variant | kcat (glucosamine-6-phosphate [1]) | self-cleavage kobs at 40 uM GlcN6P (glucosamine-6-phosphate [2]) | self-cleavage kobs at 10000 uM GlcN6P (glucosamine-6-phosphate [3]) | self-cleavage kobs at 160 uM GlcN6P (glucosamine-6-phosphate [4]) | self-cleavage kobs at 640 uM GlcN6P (glucosamine-6-phosphate [5]) | self-cleavage kobs at 2500 uM GlcN6P (glucosamine-6-phosphate [6]) | KM (glucosamine-6-phosphate [7])
19 | C68U U69A | 1.58e-05 ± 6.2e-06 s⁻¹ | < 1e-05 s⁻¹ |  |  |  |  | 
20 | C67U C70U | 0.000418 ± 1.7e-05 s⁻¹ |  | 0.000377 ± 3e-05 s⁻¹ | 4.68e-05 ± 6.2e-06 s⁻¹ | 0.000132 ± 9.5e-06 s⁻¹ | 0.000264 ± 2e-05 s⁻¹ | 1370 ± 110 µM
21 | C67U C70A | 1.69e-05 ± 4.5e-06 s⁻¹ |  |  |  |  |  | 
22 | A36U A53U |  |  |  |  |  |  | 148 ± 37 µM
23 | G37U U54C |  |  |  |  |  |  | 2230 ± 960 µM
24 | A64U C71U | 0.000158 ± 5.9e-05 s⁻¹ |  | 0.000112 ± 1.6e-05 s⁻¹ |  | 3.94e-05 ± 1.3e-05 s⁻¹ | 3.79e-05 ± 1.6e-05 s⁻¹ | 
25 | U65G G66A | 0.00234 ± 0.0003 s⁻¹ | 4.28e-05 ± 9.4e-06 s⁻¹ | 0.00183 ± 0.00025 s⁻¹ | 0.000131 ± 2.3e-05 s⁻¹ | 0.000612 ± 0.0001 s⁻¹ | 0.0013 ± 0.0002 s⁻¹ | 2300 ± 450 µM
26 | A64U C67G | < 1e-05 s⁻¹ | < 1e-05 s⁻¹ |  |  | < 1e-05 s⁻¹ |  | 
27 | G66U C70A | 7.35e-05 ± 1.3e-05 s⁻¹ |  | 6.04e-05 ± 2e-05 s⁻¹ |  | 0.000101 ± 4.5e-05 s⁻¹ | 8.96e-05 ± 3e-05 s⁻¹ | 
28 | A64C C70U | 5.98e-05 ± 9.8e-07 s⁻¹ | < 1e-05 s⁻¹ | 5.16e-05 ± 6.8e-06 s⁻¹ |  |  | 3.63e-05 ± 9.6e-06 s⁻¹ | 1590 ± 110 µM
29 | G66A C68U | 0.00532 ± 0.0011 s⁻¹ | 0.000228 ± 2.5e-05 s⁻¹ | 0.00549 ± 0.0008 s⁻¹ | 0.000531 ± 0.00015 s⁻¹ | 0.00267 ± 0.00085 s⁻¹ | 0.00284 ± 0.00078 s⁻¹ | 983 ± 280 µM
30 | U65C C68U | 2.26e-05 ± 1.2e-06 s⁻¹ |  |  |  |  |  | 558 ± 230 µM
31 | A64U U65G | 1.26e-05 ± 1e-06 s⁻¹ |  |  |  |  |  | 
32 | A64G G66A | 0.0158 ± 0.0059 s⁻¹ | 0.000837 ± 9.3e-05 s⁻¹ | 0.0215 ± 0.0052 s⁻¹ | 0.00197 ± 0.00028 s⁻¹ | 0.00554 ± 0.0008 s⁻¹ | 0.0124 ± 0.0025 s⁻¹ | 936 ± 460 µM
33 | A64G G66C | 0.00291 ± 0.001 s⁻¹ | 4.68e-05 ± 1.7e-05 s⁻¹ | 0.0027 ± 0.00051 s⁻¹ |  | 0.00057 ± 0.00011 s⁻¹ | 0.00103 ± 0.00022 s⁻¹ | 
34 | G66C C70U | 0.00129 ± 0.00032 s⁻¹ | 4.77e-05 ± 9.1e-06 s⁻¹ | 0.0011 ± 0.00011 s⁻¹ | 0.000178 ± 3.5e-05 s⁻¹ | 0.000285 ± 4.7e-05 s⁻¹ | 0.00109 ± 0.00013 s⁻¹ | 1440 ± 670 µM
35 | G66A C67A | 0.00809 ± 0.0018 s⁻¹ | 0.000216 ± 3.4e-05 s⁻¹ | 0.00873 ± 0.0016 s⁻¹ | 0.000708 ± 0.00012 s⁻¹ | 0.00222 ± 0.0004 s⁻¹ | 0.00373 ± 0.00093 s⁻¹ | 1620 ± 470 µM
36 | U65A C67A | 9.68e-05 ± 1.3e-05 s⁻¹ | 5.89e-05 ± 6.3e-06 s⁻¹ |  | 9.4e-05 ± 8.1e-06 s⁻¹ | 8.78e-05 ± 7.6e-06 s⁻¹ |  | 

Reference: the supplement of paper PMC7125110
